Measured values: US20240010680A1 (XIAMEN UNIVERSITY, published 2024)

Biological target: T1, hACE2 purified protein (human (printed as hACE2), UniProt Q9BYF1 18-740)
T1 construct: also called CM5-hACE2 chip
Assay: SPR (Biacore T200), hACE2 amine-coupled to CM5 chip, peptide as analyte
Procedure: Specific Steps: [0031] a. The GE Biacore T200 is started, the Series S Sensor Chip CM5 is embedded into the GE Biacore T200, the PBS is degassed to obtain a degassed PBS, and the degassed PBS is used throughout the experiment; [0032] b. The NHS, the EDC, the ethanolamine, and the hACE2 (1 mg/mL) are placed on a feeding plate of the GE Biacore T200 according to volumes indicated by the GE Biacore T200 using Eppendorf (EP) tubes in sufficient quantities; [0033] c. […] A mobile solution (the degassed PBS) is closed, a command window is closed, and a report is served to obtain a CM5-hACE2 chip;
Specific Steps: [0038] a. Preparing different dilutions as samples for testing: the peptides in Table 1 to be tested at a concentration of 3 mmol/L (mM) are dissolved and sequentially diluted into different dilutions of 100 μmol/L (μM), 60 μM, 30 μM, 10 μM, 3 μM, 1 μM, 0.3 μM, and 0 using the PBS to obtain the samples. Each of the different dilutions is ensured to have a volume of no less than 400 μL and separately packaged on EP tubes. The samples are placed on a test plate of the GE Biacore T200, and the test plate is stuck in a test slot; [0039] b.

T1 sequence (Q9BYF1 18-740 limits assumed): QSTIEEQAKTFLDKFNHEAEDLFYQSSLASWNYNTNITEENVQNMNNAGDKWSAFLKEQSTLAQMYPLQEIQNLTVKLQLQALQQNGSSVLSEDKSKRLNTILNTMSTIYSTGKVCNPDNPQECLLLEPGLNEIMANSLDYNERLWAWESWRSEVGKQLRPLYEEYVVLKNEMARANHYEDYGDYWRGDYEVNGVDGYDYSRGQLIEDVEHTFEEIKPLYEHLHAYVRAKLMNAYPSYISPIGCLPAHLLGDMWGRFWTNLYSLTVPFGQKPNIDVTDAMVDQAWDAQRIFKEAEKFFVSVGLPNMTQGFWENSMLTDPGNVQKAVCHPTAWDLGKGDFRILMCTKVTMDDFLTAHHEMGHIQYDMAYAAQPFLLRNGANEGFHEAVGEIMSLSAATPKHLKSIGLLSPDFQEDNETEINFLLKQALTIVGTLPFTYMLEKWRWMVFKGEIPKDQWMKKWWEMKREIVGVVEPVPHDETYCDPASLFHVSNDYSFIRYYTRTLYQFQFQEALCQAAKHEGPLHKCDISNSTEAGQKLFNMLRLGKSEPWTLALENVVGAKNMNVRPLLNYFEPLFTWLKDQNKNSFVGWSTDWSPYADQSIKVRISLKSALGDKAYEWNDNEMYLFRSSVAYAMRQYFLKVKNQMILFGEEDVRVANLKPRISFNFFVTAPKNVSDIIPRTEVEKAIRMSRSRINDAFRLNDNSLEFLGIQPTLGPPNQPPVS

Binder	Kd
YKYKYL (also called YKYKYL; first peptide) [Peptide12]	21.4 µM
YRYRYL (also called YRYRYL; second peptide) [Peptide13]	25.3 µM
YSYIQK (also called YSYIQK; third peptide) [Peptide21]	36.8 µM
YTYIQK (also called YTYIQK) [Peptide23]	46.5 µM
